The values below come from patent US20170131281A1.

Assay [1] has as its target KG1 cells surface antigen (6B protein binding surface antigen, unidentified). In words: flow cytometry on KG1 cells, sandwich with anti-c-myc-FITC.
In assay [2] the target is HL60 cells surface antigens. The experiment in a line: flow cytometry on HL60 cells, sandwich with anti-c-myc-FITC.

B1: 6B antibody in an scFv format (Clone 6B) (scFv, not shown: small tags and cut ends)
scFv: EVQLLESGGGLVQPGGSLRLSCAASGFTFSSYGMSWVRQAPGKGLEWVSTIRTAGRATEYADSVKGRFTISRDNSKNTLYLQMNSLRAEDTAVYYCAKSPQTFDYWGQGTLVTVSSGGGGSGGGGSGGGGSTDIQMTQSPSSLSASVGDRVTITCRASQSISSYLNWYQQKPGKAPKLLIYRASRLQSGVPSRFSGSGSGTDFTLTISSLQPEDFATYYCQQRLTIPITFGQGTKVEIKRAAA
Regarding B1, in assay [1], the FITC+: % Vis stood at 100%, the FITC+: GeoMean is 28.1, the FITC+: mean worked out at 29.4 and the FITC+: median stood at 28.4. In assay [2], this molecule came in with an FITC+: % Vis of 4.5%, an FITC+: GeoMean of 9.8, an FITC+: mean of 10.7 and an FITC+: median of 8.9.
